Data set [1] deals with MCF7. Briefly: percentage of EdU-negative (G0-arrested) nuclei per well, 72 h; higher = more G0 arrest. The settings on record: reference: sequence is the full UniProt precursor, the tested protein was the secreted form or ectodomain.
Data set [2] has as its system hTERT-HMEC. Described as above. To be noted: reference: sequence is the full UniProt precursor, the tested protein was the secreted form or ectodomain.
The mark [3] stands for this setting: protein concentration 0.0225 µM.
[4] abbreviates: protein concentration 0.0257143 µM.
Setting [5] is: protein concentration 0.257143 µM.
Setting [6] is: protein concentration 0.0357143 µM.
Setting [7] is: protein concentration 0.357143 µM.
The mark [8] stands for this setting: protein concentration 0.03125 µM.
Where [9] appears, read: protein concentration 0.3125 µM.

± gives the standard deviation of the averaged measurements.
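Also: secreted proteins added to cultured cells, EdU pulse at the end, nuclei found by Hoechst imaging, EdU status from nuclear versus surrounding ring intensity ratio, PBS as neutral control.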

Regarding “MILIPRMLLVLFLLLPILSSAKAQVNPAICRYPLGMSGGQIPDEDITASSQWSESTAAKYGRLDSEEGDGAWCPEIPVEPDDLKEFLQIDLHTLHFITLVGTQGRHAGGHGIEFAPMYKINYSRDGTRWISWRNRHGKQVLDGNSNPYDIFLKDLEPPIVARFVRFIPVTDHSMNVCMRVELYGCVWLDGLVSYNAPAGQQFVLPGGSIIYLNDSVYDGAVGYSMTEGLGQLTDGVSGLDDFTQTHEYHVWPGYDYVGWRNESATNGYIEIMFEFDRIRNFTTMKVHCNNMFAKGVKIFKEVQCYFRSEASEWEPNAISFPLVLDDVNPSARFVTVPLHHRMASAIKCQYHFADTWMMFSEITFQSDAAMYNNSEALPTSPMAPTTYDPMLKVDDSNTRILIGCLVAIIFILLAIIVIILWRQFWQKMLEKASRRMLDDEMTVSLSLPSDSSMFNNNRSSSPSEQGSNSTYDRIFPLRPDYQEPSRLIRKLPEFAPGEEESGCSGVVKPVQPSGPEGVPHYAEADIVNLQGVTGGNTYSVPAVTMDLLSGKDVAVEEFPRKLLTFKEKLGEGQFGEVHLCEVEGMEKFKDKDFALDVSANQPVLVAVKMLRADANKNARNDFLKEIKIMSRLKDPNIIHLLAVCITDDPLCMITEYMENGDLNQFLSRHEPPNSSSSDVRTVSYTNLKFMATQIASGMKYLSSLNFVHRDLATRNCLVGKNYTIKIADFGMSRNLYSGDYYRIQGRAVLPIRWMSWESILLGKFTTASDVWAFGVTLWETFTFCQEQPYSQLSDEQVIENTGEFFRDQGRQTYLPQPAICPDSVYKLMLSCWRRDTKNRPSFQEIHLLLLQQGDE”, the “percentage of EdU-negative” value in data set [1] (setting [3]) turned out to be 26.1 ± 1%; in data set [1] (protein concentration 0.225 µM), 25.9 ± 1.3%; in data set [2] (setting [3]) it was 4.96 ± 0.44%; in data set [2] (protein concentration 0.225 µM), 5.43 ± 1.3%.

As to “MQLQASLSFLLILTLCLELRSELARDTIKDLLPNVCAFPMEKGPCQTYMTRWFFNFETGECELFAYGGCGGNSNNFLRKEKCEKFCKFT”, the “percentage of EdU-negative” value in data set [1] (setting [4]) is 25.8 ± 1.5%; in data set [1] (setting [5]), 24.81 ± 0.086%; in data set [2] (setting [4]), 4.34 ± 0.046%; in data set [2] (setting [5]) it was 4.94 ± 0.32%.

For “MESKGASSCRLLFCLLISATVFRPGLGWYTVNSAYGDTIIIPCRLDVPQNLMFGKWKYEKPDGSPVFIAFRSSTKKSVQYDDVPEYKDRLNLSENYTLSISNARISDEKRFVCMLVTEDNVFEAPTIVKVFKQPSKPEIVSKALFLETEQLKKLGDCISEDSYPDGNITWYRNGKVLHPLEGAVVIIFKKEMDPVTQLYTMTSTLEYKTTKADIQMPFTCSVTYYGPSGQKTIHSEQAVFDIYYPTEQVTIQVLPPKNAIKEGDNITLKCLGNGNPPPEEFLFYLPGQPEGIRSSNTYTLTDVRRNATGDYKCSLIDKKSMIASTAITVHYLDLSLNPSGEVTRQIGDALPVSCTISASRNATVVWMKDNIRLRSSPSFSSLHYQDAGNYVCETALQEVEGLKKRESLTLIVEGKPQIKMTKKTDPSGLSKTIICHVEGFPKPAIQWTITGSGSVINQTEESPYINGRYYSKIIISPEENVTLTCTAENQLERTVNSLNVSAISIPEHDEADEISDENREKVNDQAKLIVGIVVGLLLAALVAGVVYWLYMKKSKTASKHVNKDLGNMEENKKLEENNHKTEA”, the “percentage of EdU-negative” value in data set [1] (setting [6]) came to 26.8 ± 1.2%; in data set [1] (setting [7]), 25.13 ± 0.15%; in data set [2] (setting [6]) it was 4.83 ± 0.2%; in data set [2] (setting [7]) it was 5.08 ± 0.77%.

On to “MRGTPGDADGGGRAVYQSMCKPITGTINDLNQQVWTLQGQNLVAVPRSDSVTPVTVAVITCKYPEALEQGRGDPIYLGIQNPEMCLYCEKVGEQPTLQLKEQKIMDLYGQPEPVKPFLFYRAKTGRTSTLESVAFPDWFIASSKRDQPIILTSELGKSYNTAFELNIND [Q9NZH8]”, for which the “percentage of EdU-negative” value in data set [1] (setting [3]) worked out at 22.9 ± 0.82%; in data set [1] (protein concentration 0.225 µM) it was 23 ± 2.5%; in data set [2] (setting [3]) it was 4.85 ± 0.94%; in data set [2] (protein concentration 0.225 µM), 5.31 ± 0.92%.

As for “MGPISAPSCRWRIPWQGLLLTASLFTFWNPPTTAQLTIEAVPSNAAEGKEVLLLVHNLPQDPRGYNWYKGETVDANRRIIGYVISNQQITPGPAYSNRETIYPNASLLMRNVTRNDTGSYTLQVIKLNLMSEEVTGQFSVHPETPKPSISSNNSNPVEDKDAVAFTCEPETQNTTYLWWVNGQSLPVSPRLQLSNGNRTLTLLSVTRNDVGPYECEIQNPASANFSDPVTLNVLYGPDAPTISPSDTYYHAGVNLNLSCHAASNPPSQYSWSVNGTFQQYTQKLFIPNITTKNSGSYACHTTNSATGRNRTTVRMITVSDALVQGSSPGLSARATVSIMIGVLARVALI”, the “percentage of EdU-negative” value worked out at 25.7 ± 1.8% in data set [1] (setting [3]), 27.4 ± 2.2% in data set [1] (protein concentration 0.225 µM), 5.19 ± 1.8% in data set [2] (setting [3]) and 9.55 ± 1.5% in data set [2] (protein concentration 0.225 µM).

Turning to “MAVAAAAAAAGPAGAGGGRAQRSGLLEVLVRDRWHKVLVNLSEDALVLSSEEGAAAYNGIGTATNGSFCRGAGAGHPGAGGAQPPDSPAGVRTAFTDLPEQVPESISNQKRGVKVLKQELGGLGISIKGGKENKMPILISKIFKGLAADQTQALYVGDAILSVNGADLRDATHDEAVQALKRAGKEVLLEVKYMREATPYVKKGSPVSEIGWETPPPESPRLGGSTSDPPSSQSFSFHRDRKSIPLKMCYVTRSMALADPENRQLEIHSPDAKHTVILRSKDSATAQAWFSAIHSNVNDLLTRVIAEVREQLGKTGIAGSREIRHLGWLAEKVPGESKKQWKPALVVLTEKDLLIYDSMPRRKEAWFSPVHTYPLLATRLVHSGPGKGSPQAGVDLSFATRTGTRQGIETHLFRAETSRDLSHWTRSIVQGCHNSAELIAEISTACTYKNQECRLTIHYENGFSITTEPQEGAFPKTIIQSPYEKLKMSSDDGIRMLYLDFGGKDGEIQLDLHSCPKPIVFIIHSFLSAKITRLGLVA”, the “percentage of EdU-negative” value in data set [1] (setting [3]) came out at 27.8 ± 2.2%; in data set [1] (protein concentration 0.225 µM), 25.6 ± 0.97%; in data set [2] (setting [3]) it was 4.71 ± 0.2%; in data set [2] (protein concentration 0.225 µM), 6.28 ± 0.64%.

Turning to “MAGPATQSPMKLMALQLLLWHSALWTVQEATPLGPASSLPQSFLLKCLEQVRKIQGDGAALQEKLVSECATYKLCHPEELVLLGHSLGIPWAPLSSCPSQALQLAGCLSQLHSGLFLYQGLLQALEGISPELGPTLDTLQLDVADFATTIWQQMEELGMAPALQPTQGAMPAFASAFQRRAGGVLVASHLQSFLEVSYRVLRHLAQP”, the “percentage of EdU-negative” value in data set [1] (setting [8]) was determined as 25 ± 0.82%; in data set [1] (setting [9]), 27.5 ± 0.74%; in data set [2] (setting [8]), 5.19 ± 0.94%; in data set [2] (setting [9]), 9.86 ± 1.2%.
